Results: patent US7432365B1, “DNA molecules encoding beta clamp proteins of gram positive bacteria” (priority 1998, dated 2008)
“And” between values parts separate entries of the source, which are not always exact repeats. Identical values can stand only once.

Experiments:
Pol I = Pol I (Bacillus subtilis, UniProt O34996); details: 0.15 M KCl; cited from earlier work
Pol II = details: 0.15 M KCl; cited from earlier work
Pol III-L = Pol III-L (Bacillus subtilis, UniProt P13267); details: Pol III-L, 0.15 M KCl; cited from earlier work
[1] = molecular target: Escherichia coli DNA polymerase III core (Escherichia coli) (UniProt P10443); assay: cell-based or functional assay
Chain of Escherichia coli DNA polymerase III core (Escherichia coli) (P10443 whole entry, chain 1 of 3): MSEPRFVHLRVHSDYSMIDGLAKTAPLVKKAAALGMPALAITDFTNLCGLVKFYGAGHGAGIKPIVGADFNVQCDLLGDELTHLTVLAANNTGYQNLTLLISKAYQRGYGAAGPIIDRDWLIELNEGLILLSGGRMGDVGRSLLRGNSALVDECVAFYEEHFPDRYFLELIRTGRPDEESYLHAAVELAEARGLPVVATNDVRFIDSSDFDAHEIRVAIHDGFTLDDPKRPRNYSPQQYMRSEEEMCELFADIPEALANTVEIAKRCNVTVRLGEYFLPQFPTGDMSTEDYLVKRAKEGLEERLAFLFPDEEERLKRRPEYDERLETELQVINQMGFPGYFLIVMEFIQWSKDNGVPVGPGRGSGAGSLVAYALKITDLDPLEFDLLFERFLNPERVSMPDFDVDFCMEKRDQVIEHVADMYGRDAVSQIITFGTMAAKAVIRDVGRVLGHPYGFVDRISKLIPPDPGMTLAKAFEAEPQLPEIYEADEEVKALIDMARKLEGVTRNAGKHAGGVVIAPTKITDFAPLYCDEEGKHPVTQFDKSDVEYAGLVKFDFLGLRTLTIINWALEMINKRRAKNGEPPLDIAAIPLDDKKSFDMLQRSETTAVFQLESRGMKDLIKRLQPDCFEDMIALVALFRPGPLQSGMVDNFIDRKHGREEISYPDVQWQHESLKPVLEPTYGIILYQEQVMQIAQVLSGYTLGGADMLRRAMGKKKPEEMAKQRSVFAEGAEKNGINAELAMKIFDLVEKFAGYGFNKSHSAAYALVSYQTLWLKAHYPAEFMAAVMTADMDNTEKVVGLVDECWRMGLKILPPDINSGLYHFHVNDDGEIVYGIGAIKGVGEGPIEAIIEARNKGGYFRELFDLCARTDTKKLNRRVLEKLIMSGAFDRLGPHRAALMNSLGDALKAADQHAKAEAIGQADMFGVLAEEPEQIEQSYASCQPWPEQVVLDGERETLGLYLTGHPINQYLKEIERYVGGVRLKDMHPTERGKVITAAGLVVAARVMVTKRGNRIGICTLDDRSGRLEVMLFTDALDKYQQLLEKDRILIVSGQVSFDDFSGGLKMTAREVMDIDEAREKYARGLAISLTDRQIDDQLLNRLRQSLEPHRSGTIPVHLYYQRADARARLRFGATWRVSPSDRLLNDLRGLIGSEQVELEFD
Chain of Escherichia coli DNA polymerase III core (Escherichia coli) (P03007 whole entry, chain 2 of 3, further chain): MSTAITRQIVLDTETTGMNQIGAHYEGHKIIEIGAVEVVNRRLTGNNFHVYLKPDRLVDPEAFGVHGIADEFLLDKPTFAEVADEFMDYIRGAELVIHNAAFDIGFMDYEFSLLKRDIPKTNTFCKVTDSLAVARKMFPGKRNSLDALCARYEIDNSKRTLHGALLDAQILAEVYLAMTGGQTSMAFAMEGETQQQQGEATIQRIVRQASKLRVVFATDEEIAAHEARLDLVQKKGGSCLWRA
Chain of Escherichia coli DNA polymerase III core (Escherichia coli) (P0ABS8 whole entry, chain 3 of 3, further chain): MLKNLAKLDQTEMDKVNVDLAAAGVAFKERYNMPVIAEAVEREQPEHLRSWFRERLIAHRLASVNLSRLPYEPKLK

[2] = tested on: singly primed M13mp18 ssDNA; assay: Time course of primer extension on singly primed M13mp18 ssDNA, DnaE polymerase; assay type: biochemical; details: saturating concentration of DnaE
Description: The S. pyogenes DnaE (α-small) polymerase is more homologous to E. coli a than S. pyogenes PolC. Thus, it seems reasonable to expect that the DnaE polymerase may also function with the β clamp (FIGS. 21A-B). To test DnaE for function with τδδ′ and β, replication reactions contained 70 ng (25 fmol) of 30-mer singly primed M13 mp18 ssDNA, 0.82 μg of S. pyogenes SSB, and 3.3 ng-300 ng of DnaE (25 fmol −2.3 pmol) in 23.5 μl of 20 mM Tris-HCl (pH 7.5), 4% glycerol, 0.1 mM EDTA, 5 mM dithiothreitol (DTT), 40 μg/ml BSA, 2 mM ATP, 8 mM MgCl2, and 60 μM each of dGTP and dCTP. When present, reactions included 43.3 ng of β and 10 ng of τδδ′. Reactions were preincubated for 3 min at 37° C., and then NaCl was added to 40 mM followed by another 2 min at 37° C. DNA synthesis was initiated upon addition of 1.5 μl of 1.5 mM dATP, 0.5 mM [α^32P]-dTTP (specific activity 2,000-4,000 cpm/pmol). Aliquots of 25 μl were removed at the indicated times and quenched with an equal volume (25 μl) of 1% SDS, 40 mM EDTA. One-half of the quenched reaction was analyzed for total deoxynucleotide incorporation using DE81 filter paper and the other half was analyzed on a 0.8% neutral agarose gel. The effect of TMAU was also examined, in which 100 μM TMAU in DMSO (2% DMSO final concentration) was present. In this case, replication was allowed to proceed for 1 min before being quenched with […] of 1% SDS, 40 mM EDTA. […]

[3] = molecular target: Staphylococcus aureus Pol III-L (α-large, polC gene product) (Staphylococcus aureus) (UniProt P0C1P9); assay: cell-based or functional assay
Chain of Staphylococcus aureus Pol III-L (α-large, polC gene product) (Staphylococcus aureus) (P0C1P9 whole entry): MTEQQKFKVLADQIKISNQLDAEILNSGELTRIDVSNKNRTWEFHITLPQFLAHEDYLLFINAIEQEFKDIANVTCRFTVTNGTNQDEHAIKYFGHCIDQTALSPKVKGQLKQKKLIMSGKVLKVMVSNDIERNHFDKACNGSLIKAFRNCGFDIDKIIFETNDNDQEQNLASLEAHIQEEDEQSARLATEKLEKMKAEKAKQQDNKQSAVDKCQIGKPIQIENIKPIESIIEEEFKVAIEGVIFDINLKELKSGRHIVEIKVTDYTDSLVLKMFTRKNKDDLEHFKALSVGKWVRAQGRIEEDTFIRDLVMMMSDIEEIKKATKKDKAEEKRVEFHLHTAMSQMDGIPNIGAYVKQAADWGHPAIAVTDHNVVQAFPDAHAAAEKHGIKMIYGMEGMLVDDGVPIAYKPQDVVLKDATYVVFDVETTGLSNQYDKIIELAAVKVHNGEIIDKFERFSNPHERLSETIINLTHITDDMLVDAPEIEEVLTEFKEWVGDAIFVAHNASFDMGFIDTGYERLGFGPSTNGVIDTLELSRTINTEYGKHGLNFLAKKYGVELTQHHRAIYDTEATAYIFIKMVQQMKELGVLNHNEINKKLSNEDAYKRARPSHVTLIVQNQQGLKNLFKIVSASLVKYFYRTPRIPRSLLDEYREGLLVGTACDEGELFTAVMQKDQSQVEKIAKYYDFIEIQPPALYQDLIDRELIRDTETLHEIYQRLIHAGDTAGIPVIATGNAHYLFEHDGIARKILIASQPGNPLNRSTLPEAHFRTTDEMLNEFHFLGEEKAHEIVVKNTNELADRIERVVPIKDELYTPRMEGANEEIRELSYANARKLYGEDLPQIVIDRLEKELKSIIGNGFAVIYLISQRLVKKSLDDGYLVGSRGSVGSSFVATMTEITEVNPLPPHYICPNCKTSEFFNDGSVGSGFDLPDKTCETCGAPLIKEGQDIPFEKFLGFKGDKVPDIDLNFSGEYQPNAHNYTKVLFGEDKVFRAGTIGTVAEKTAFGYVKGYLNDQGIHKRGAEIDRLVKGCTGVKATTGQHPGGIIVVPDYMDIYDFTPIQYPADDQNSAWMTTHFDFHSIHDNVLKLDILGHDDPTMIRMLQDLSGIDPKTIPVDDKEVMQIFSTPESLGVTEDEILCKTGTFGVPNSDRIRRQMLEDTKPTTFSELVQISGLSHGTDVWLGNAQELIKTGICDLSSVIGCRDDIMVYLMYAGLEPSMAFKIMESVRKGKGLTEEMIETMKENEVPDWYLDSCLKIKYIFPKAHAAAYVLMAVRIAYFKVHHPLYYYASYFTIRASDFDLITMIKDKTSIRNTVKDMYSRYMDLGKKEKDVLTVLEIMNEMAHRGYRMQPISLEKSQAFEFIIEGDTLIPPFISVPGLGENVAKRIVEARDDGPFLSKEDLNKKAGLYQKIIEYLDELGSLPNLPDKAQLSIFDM

Chain of Pol I (O34996 whole entry): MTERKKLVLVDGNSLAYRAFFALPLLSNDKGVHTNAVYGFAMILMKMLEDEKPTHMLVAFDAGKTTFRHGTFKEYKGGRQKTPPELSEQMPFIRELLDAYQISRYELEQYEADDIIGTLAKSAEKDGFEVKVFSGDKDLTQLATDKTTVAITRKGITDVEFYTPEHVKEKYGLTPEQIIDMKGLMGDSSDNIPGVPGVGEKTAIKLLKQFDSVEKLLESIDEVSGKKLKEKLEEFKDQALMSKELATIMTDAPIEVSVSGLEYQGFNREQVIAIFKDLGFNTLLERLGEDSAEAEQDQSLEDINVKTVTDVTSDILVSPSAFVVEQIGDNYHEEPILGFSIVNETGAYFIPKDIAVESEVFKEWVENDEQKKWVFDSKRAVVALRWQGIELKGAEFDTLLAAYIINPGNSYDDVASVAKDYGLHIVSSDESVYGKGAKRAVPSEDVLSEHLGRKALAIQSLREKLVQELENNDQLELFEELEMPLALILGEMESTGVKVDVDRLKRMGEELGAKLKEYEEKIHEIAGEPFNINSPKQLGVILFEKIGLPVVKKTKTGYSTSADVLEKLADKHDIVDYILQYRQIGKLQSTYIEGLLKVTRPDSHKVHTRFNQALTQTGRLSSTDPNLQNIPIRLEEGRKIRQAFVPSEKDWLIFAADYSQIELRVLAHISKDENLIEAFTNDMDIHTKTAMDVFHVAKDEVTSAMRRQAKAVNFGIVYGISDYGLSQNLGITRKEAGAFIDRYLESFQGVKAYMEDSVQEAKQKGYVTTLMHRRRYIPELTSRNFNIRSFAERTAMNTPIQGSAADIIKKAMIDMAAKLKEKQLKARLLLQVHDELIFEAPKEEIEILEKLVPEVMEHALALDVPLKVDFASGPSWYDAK

Molecule: [Cl-].[K+] [KCl]
- Expected characteristics: inhibition by 0.15 M KCl (Pol I): not inhibited (Not inhibited is defined as greater than 75% remaining activity)
- Expected characteristics: inhibition by 0.15 M KCl (Pol II): not inhibited (Not inhibited is defined as greater than 75% remaining activity)
- Expected characteristics: inhibition by 0.15 M KCl (Pol III-L): not inhibited (Not inhibited is defined as greater than 75% remaining activity)

Molecule: Escherichia coli beta subunit of DNA polymerase III holoenzyme (from UniProt P0A988 1-366)
- Total DNA synthesis on polydA-oligodT, lane 6 (E. coli Pol III core with E. coli beta; lane 5 without beta 0.97 pmol) [1]: 28.1 pmol
- stimulation of DNA synthesis by E. coli core on linear polydA-oligodT [1]: > 10 fold

B1: DnaE polymerase: S. pyogenes DnaE (α-small) polymerase encoded by dnaE, SEQ. ID. No. 20 (protein)
chain: MFAQLDTKTVYSFMDSLIDLNHYFERAKQFGYHTIGIMDKDNLYGAYHFIKGCQKNGLQPVLGLEIEILYQERQVLLNLIAQNTQGYHQLLKISTAKMSGKLHMDYFCQHLEGIAVIIPSKGWSDTLVVPFDYYMGVDQYTDLSHMDSKRQLIPLRTVRYFAQDDMETLHMLHAIRDNLSLAETPVVESDQELADCQQLTAFYQTHCPQALQNLEDLVSGIYYDFDTNLKLPHFNRDKSAKQELQDLTEAGLKEKGLWKEPYQSRLLHELVIISDMGFDDYFLIVWDLLRFGRSKGYYMGMGRGSAAGSLVAYALNITGIDPVQHDLLFERFLNKERYSMPDIDIDLPDIYRSEFLRYVRNRYGSDHSAQIVTFSTFGPKQAIRDVFKRFGVPEYELTNLTKKIGFKDSLATVYEKSISFRQVINSRTEFQKAFAIAKRIEGNPRQTSIHAAGIVMSDDALTNHIPLKSGDDMMITQYDAHAVEANGLLKMDFLGLRNLTFVQKMQEKVAKDYGCQIDITAIDLEDPQTLALFAKGDTKGIFQFEQNGAINLLKRIKPQRFEEIVATTSLNRPGASDYTTNFIKRREGQEKIDLIDPVIAPILEPTYGIMLYQEQVMQIAQVYAGFTLGKADLLRRAMSKKNLQEMQKMEEDFIASAKHLGRAEETARGLFKRMEKFAGYGFNRSHAFAYSALAFQLAYFKAHYPAVFYDIMMNYSSSDYITDALESDFQVAQVTINSIPYTDKIEASKIYMGLKNIKGLPRDFAYWIIEQRPFNSVEDFLTRTPEKYQKKVFLEPLIKIGLFDCFEPNRKKILDNLDGLLVFVNELGSLFSDSSFSWVDTKDYSVTEKYSLEQEIVGVGMSKHPLIDIAEKSTQTFTPISQLVKESEAVVLIQIDSIRIIRTKTSGQQMAFLSVNDTKKKLDVTLFPQEYAIYKDQLKEGEFYYLKGRIKERDHRLQMVCQQVQMAISQKYWLLVENHQFDSQISEILGAFPGTTPVVIHYQKNKETIALTKIQVTENLKEKLRPFVLKTVFR
- Speed of primer extension [2]: at least 60 nucleotides/s
- Time to complete M13mp18 primed ssDNA template ([2]; absence of β, presence of τδδ′): ≤ 2 min

B2: Staphylococcus aureus beta subunit (dnaN gene product) (protein)
chain: MMEFTIKRDYFITQLNDTLKAISPRTTLPILTGIKIDAKEHEVILTGSDSEISIEITIPKTVDGEDIVNISETGSVVLPGRFFVDIIKKLPGKDVKLSTNEQFQTLITSGHSEFNLSGLDPDQYPLLPQVSRDDAIQLSVKVLKNVIAQTNFAVSTSETRPVLTGVNWLIQENELICTATDSHRLAVRKLQLEDVSENKNVIIPGKALAELNKIMSDNEEDIDIFFASNQVLFKVGNVNFISRLLEGHYPDTTRLFPENYEIKLSIDNGEFYHAIDRASLLAREGGNNVIKLSTGDDVVELSSTSPEIGTVKEEVDANDVEGGSLKISFNSKYMMDALKAIDNDEVEVEFFGTMKPFILKPKGDDSVTQLILPIRTY
- Total DNA synthesis on polydA-oligodT, lane 2 (Pol III-L with S. aureus beta; lane 1 without beta 4.4 pmol) [3]: 30.3 pmol
- stimulation of DNA synthesis by Pol III-L on linear polydA-oligodT [3]: 5 fold and 6 fold
- Total DNA synthesis on polydA-oligodT, lane 4 (E. coli Pol III core with S. aureus beta; lane 3 without beta 5.1 pmol) [1]: 35.5 pmol
- stimulation of DNA synthesis by E. coli core on linear polydA-oligodT [1]: 5 fold
